Results on 4 molecules are retold here after US20150329637A1 (NUMAB, published 2015).

Read-outs that look alike come from different tables or passages of the source.

Test [1] has as its target mouse CD3 (mouse CD36E [sic], Sino Biologicals Inc., Cat. No. CT033-M2508H) (mouse) (UniProt P22646). In words: SPR. Background: SPR reads the build-up and loss of mass on a sensor chip optically.
Test [2] concerns the target T1, mouse IL23R (as used in the SPR of PRO387 and PRO386) (mouse, UniProt Q8K4B4 24-372, limits assumed).
T1 sequence (looked up): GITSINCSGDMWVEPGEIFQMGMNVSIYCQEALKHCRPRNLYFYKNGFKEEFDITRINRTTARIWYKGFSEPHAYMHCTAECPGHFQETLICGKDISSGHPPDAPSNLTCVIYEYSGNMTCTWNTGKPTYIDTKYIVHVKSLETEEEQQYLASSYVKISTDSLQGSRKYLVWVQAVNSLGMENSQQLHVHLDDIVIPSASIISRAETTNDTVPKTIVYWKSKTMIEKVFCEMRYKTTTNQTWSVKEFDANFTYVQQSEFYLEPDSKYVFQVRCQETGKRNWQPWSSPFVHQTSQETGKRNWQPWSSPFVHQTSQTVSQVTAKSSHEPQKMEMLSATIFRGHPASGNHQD
In words: SPR.

For test [3], the target named is T2, mouse IL23R Fc chimera (R&D Systems, Cat. No. 1686-MR-050) (mouse, UniProt Q8K4B4 24-372).
T2 construct: Bought reagent; Fc part of the bought chimera not given
T2 sequence (looked up): T1 sequence (looked up)
In words: SPR; IL23R Fc chimera captured by anti-human Fc, scFv injected. The procedure: (§1) Binding affinities of anti-IL23R scFvs were measured by surface plasmon resonance (SPR) using a MASS-1 SPR instrument (Sierra Sensors). […] After immobilization, 1 ug/ml recombinant human IL23R Fc chimera (R&D Systems, Cat. No. 1400-IR-050) was captured by the anti-human IgG antibody while a second immobilized channel served as a control where the capture was replaced by buffer. Two-fold serial dilutions of human scFvs ranging from 180 to 2.81 nM were injected into both flow cells for 3 min and dissociation of the scFvs from the chimera on the sensor chip was allowed to proceed for 700 sec. After each injection cycle, surfaces were regenerated with two 1 min injections of 10 mM glycine-HCI pH 1.5. In a similar manner the affinities for cynomolgus and mouse IL23R Fc chimera (R&D Systems, Cat. No. 1686-MR-050) was measured. The apparent dissociation (kd) and association (ka) rate constants and the apparent dissociation equilibrium constant (KD) were calculated with the MASS-1 analysis software (Analyzer, Sierra Sensors) using one-to-one Langmuir binding model.

Test [4] has as its target T3, cynomolgus IL23R Fc chimera (cynomolgus monkey, UniProt G7NWY5 24-353).
T3 construct: Named only in the method sentence 'cynomolgus and mouse IL23R Fc chimera'; also called cyno IL23R; not shown: Fc part of the chimera
T3 sequence: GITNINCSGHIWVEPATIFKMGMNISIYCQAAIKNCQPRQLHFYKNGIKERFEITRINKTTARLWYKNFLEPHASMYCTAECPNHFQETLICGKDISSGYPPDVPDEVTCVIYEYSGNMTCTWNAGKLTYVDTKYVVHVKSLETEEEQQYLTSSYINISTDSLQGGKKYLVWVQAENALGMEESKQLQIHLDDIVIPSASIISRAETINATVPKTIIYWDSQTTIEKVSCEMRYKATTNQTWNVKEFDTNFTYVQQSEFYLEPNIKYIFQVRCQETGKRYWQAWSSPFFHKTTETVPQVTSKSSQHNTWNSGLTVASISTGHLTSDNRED
The description is as above. As for the experimental part: as §1

Test [5] deals with T4, recombinant human IL23R Fc chimera (R&D Systems, Cat. No. 1400-IR-050) (human, UniProt Q5VWK5 24-353).
T4 construct: Bought reagent; not shown: Fc part (and any linker) of the bought chimera; captured by an anti-human IgG Fc antibody
T4 sequence (looked up): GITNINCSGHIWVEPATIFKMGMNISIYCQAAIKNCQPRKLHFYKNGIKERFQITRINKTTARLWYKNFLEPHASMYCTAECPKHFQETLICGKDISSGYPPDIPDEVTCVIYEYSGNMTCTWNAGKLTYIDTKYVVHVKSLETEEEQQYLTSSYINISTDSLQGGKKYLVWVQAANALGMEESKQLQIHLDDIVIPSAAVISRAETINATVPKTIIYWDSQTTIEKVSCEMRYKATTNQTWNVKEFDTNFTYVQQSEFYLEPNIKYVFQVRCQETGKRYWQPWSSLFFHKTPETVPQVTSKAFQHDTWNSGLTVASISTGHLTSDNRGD
Described as above. The procedure: as §1

Test [6] has as its target T1, mouse IL23R (as used in the SPR of …). In words: SPR. This is another data set of the same source.
Test [7] has as its target mouse CD3 (mouse CD36E [sic], Sino Biologicals Inc., Cat. No. CT033-M2508H) (mouse) (UniProt P22646). Briefly: SPR. This is another data set of the same source.

mouse CD3 (mouse CD36E [sic], Sino Biologicals Inc., Cat. No. CT033-M2508H) (mouse), sequence (P22646 22-108, chain 1 of 2): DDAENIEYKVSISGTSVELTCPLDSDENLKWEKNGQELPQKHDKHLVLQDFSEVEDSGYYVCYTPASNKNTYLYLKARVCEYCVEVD
mouse CD3 (mouse CD36E [sic], Sino Biologicals Inc., Cat. No. CT033-M2508H) (mouse), sequence (P04235 22-105, chain 2 of 2, further chain): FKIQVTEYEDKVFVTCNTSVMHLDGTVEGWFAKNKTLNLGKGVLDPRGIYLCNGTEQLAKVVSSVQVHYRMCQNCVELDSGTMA

B1: PRO387 (bispecific antibody)
chain: DIQMTQSPSSLSASVGDRVTITCQASENIYSFLAWYQQKPGKAPKLLIYSASKLAAGVPSRFSGSGSGTDFTLTISSLQPEDFATYYCQQTNRYSNPDIYNVFGQGTKLTVLGGGGGSEVQLVESGGGLVQPGKSLKLSCEASGFTFSGYGMHWVRQAPGRGLESVAYITSSSINIKYADAVKGRFTVSRDNAKNLLFLQMNILKSEDTAMYYCARFDWDKNYWGQGTMVTVSSGGGGSGGGGSGGGGSGGGGSDIQMTQSPSSLPASLGDRVTINCQASQDISNYLNWYQQKPGKAPKLLIYYTNKLADGVPSRFSGSGSGRDSSFTISSLESEDIGSYYCQQYYNYPWTFGPGTKLEIKRGGGGSEVQLVESGGGLVQPGGSLRLSCAASGIDFNSNYYMCWVRQAPGKGLEWIGCIYVGSHVNTYYANWAKGRFTISRDNSKNTVYLQMNSLRAEDTAVYYCATSGSSVLYFKFWGQGTLVTVSS
notes: also called PRO387 (scDb); surrogate scDb
On to B1, for which, in test [1], the Kd (in general, the free concentration of one partner at which half of the binding sites on the other are occupied at equilibrium, for simple one-to-one binding) turned out to be 9.11 nM; the koff (in general, a measure of how fast the partners let go of each other) is 0.00213 s⁻¹; the kon (in general, the rate constant with which the complex forms) was 233000 M⁻¹ s⁻¹. Moreover, in test [2], the Kd came to 4.66 nM, the koff came to 0.00326 s⁻¹ and the association rate constant (kon) came out at 701000 M⁻¹ s⁻¹.

B2: 14-11-D07-sc01 (scFv)
scFv: DIQMTQSPSSLSASVGDRVTITCQASENIYSFLAWYQQKPGKAPKLLIYSASKLAAGVPSRFSGSGSGTDFTLTISSLQPEDFATYYCQQTNRYSNPDIYNVFGQGTKLTVLGGGGGSGGGGSGGGGSGGGGSEVQLVESGGGLVQPGGSLRLSCAASGIDFNSNYYMCWVRQAPGKGLEWIGCIYVGSHVNTYYANWAKGRFTISRDNSKNTVYLQMNSLRAEDTAVYYCATSGSSVLYFKFWGQGTLVTVSS
notes: Humanized scFv (CDR graft on a VK1/VH3 framework); also called anti-IL23R scFv 14-11-D07-sc01
In the case of B2, in test [3], the Kd came to 2.21 nM, the off-rate constant (koff) came to 0.00418 s⁻¹ and the kon stood at 1.89e+06 M⁻¹ s⁻¹. Further, in test [4], the dissociation constant Kd was determined as 0.124 nM, the koff came out at 0.000361 s⁻¹ and the association rate constant (kon) is 2.92e+06 M⁻¹ s⁻¹. In test [5], the Kd was 0.116 nM, the off-rate constant (koff) came out at 0.000259 s⁻¹ and the kon was 2.24e+06 M⁻¹ s⁻¹.

B3: PRO400 (Fab, V domains shown)
VH: EVQLVESGGGLVQPGKSLKLSCEASGFTFSGYGMHWVRQAPGRGLESVAYITSSSINIKYADAVKGRFTVSRDNAKNLLFLQMNILKSEDTAMYYCARFDWDKNYWGQGTMVTVSS
VL: DIQMTQSPSSLPASLGDRVTINCQASQDISNYLNWYQQKPGKAPKLLIYYTNKLADGVPSRFSGSGSGRDSSFTISSLESEDIGSYYCQQYYNYPWTFGPGTKLEIKR
Turning to B3, in test [1], the Kd was 11.4 nM, the koff was 0.00266 s⁻¹ and the on-rate constant (kon) came to 233000 M⁻¹ s⁻¹.

B4: PRO386 (bispecific antibody)
light: DIQMTQSPSSLPASLGDRVTINCQASQDISNYLNWYQQKPGKAPKLLIYYTNKLADGVPSRFSGSGSGRDSSFTISSLESEDIGSYYCQQYYNYPWTFGPGTKLEIKRRTVAAPSVFIFPPSDEQLKSGTASVVCLLNNFYPREAKVQWKVDNALQSGNSQESVTEQDSKDSTYSLSSTLTLSKADYEKHKVYACEVTHQGLSSPVTKSFNRGECGGGGSGGGGSHMDIQMTQSPSSLSASVGDRVTITCQASENIYSFLAWYQQKPGKAPKLLIYSASKLAAGVPSRFSGSGSGTDFTLTISSLQPEDFATYYCQQTNRYSNPDIYNVFGQGTKLTVLGGGGGSGGGGSGGGGSGGGGSEVQLVESGGGLVQPGGSLRLSCAASGIDFNSNYYMCWVRQAPGKGLEWIGCIYVGSHVNTYYANWAKGRFTISRDNSKNTVYLQMNSLRAEDTAVYYCATSGSSVLYFKFWGQGTLVTVSS
heavy: EVQLVESGGGLVQPGKSLKLSCEASGFTFSGYGMHWVRQAPGRGLESVAYITSSSINIKYADAVKGRFTVSRDNAKNLLFLQMNILKSEDTAMYYCARFDWDKNYWGQGTMVTVSSASTKGPSVFPLAPSSKSTSGGTAALGCLVKDYFPEPVTVSWNSGALTSGVHTFPAVLQSSGLYSLSSVVTVPSSSLGTQTYICNVNHKPSNTKVDKKVEPKSCGGGGSGGGGSHMDIQMTQSPSSLSASVGDRVTITCQASENIYSFLAWYQQKPGKAPKLLIYSASKLAAGVPSRFSGSGSGTDFTLTISSLQPEDFATYYCQQTNRYSNPDIYNVFGQGTKLTVLGGGGGSGGGGSGGGGSGGGGSEVQLVESGGGLVQPGGSLRLSCAASGIDFNSNYYMCWVRQAPGKGLEWIGCIYVGSHVNTYYANWAKGRFTISRDNSKNTVYLQMNSLRAEDTAVYYCATSGSSVLYFKFWGQGTLVTVSS
notes: Heterodimer; bispecific and trivalent (one anti-CD3 Fab, two anti-IL23R scFvs); also called PRO386 (Tribody); Fab-scFv fusion surrogate
As to B4, in test [6], the dissociation constant (Kd) stood at 0.583 nM, the koff came out at 0.000533 s⁻¹ and the kon is 915000 M⁻¹ s⁻¹. In test [7], this molecule came in with a Kd of 11.5 nM, an off-rate (koff) of 0.00196 s⁻¹ and a kon of 171000 M⁻¹ s⁻¹.
